Data set [1] deals with Immunoglobulin E (IgE), human myeloma (human). Particulars: in solution; full-length clone; Blocking buffer: 10 mg/mL casein, 0.1% Tween-20, 8.1 mM Na2HPO4 (printed N2HPO4), 1.1 mM KH2PO4, 2.7 mM KCl, 137 mM NaCl (138 mM also listed), 1 mM MgCl2, pH 7.; cited from earlier work.
For data set [2] the test system is unchanged. Description: DNA microarray fluorescence. Particulars: Blocking buffer: 10 mg/mL casein, 0.1% Tween-20, 8.1 mM Na2HPO4 (printed N2HPO4), 1.1 mM KH2PO4, 2.7 mM KCl, 137 mM NaCl (138 mM also listed), 1 mM MgCl2, pH 7.

Like-named read-outs stand apart in the source and are kept apart here.

For “CTACCTACGATCTGACTAGCCAATGAGTGTACCACGTTTATCCGTCCCTCCTAGTGGCGTGCTTACTCTCATGTAGTTCC [D 17.0]”, the dissociation constant Kd (as a rule, the constant that tells how readily two partners part at equilibrium) in data set [1] is 9 nM; in data set [2], above 100 nM.
